This is an account of results in patent US11807868.

What all share (assay): cell-based or functional assay
For experiment [1], the target named is wild-type AAV1 capsid (adeno-associated virus type 1 (AAV1)).
The target in experiment [2] is SM 100-10 variant AAV capsid (Adeno-associated virus 2 (isolate Srivastava/1982) (AAV-2)) (UniProt P03135).
In experiment [3] the target is SM 10-8 variant AAV capsid (Adeno-associated virus 2 (isolate Srivastava/1982) (AAV-2)) (UniProt P03135).
In experiment [4] the target is wild-type AAV2 capsid (adeno-associated virus type 2 (AAV2)) (UniProt P03135).
Experiment [5] concerns the target SM 10-2 variant AAV capsid (Adeno-associated virus 2 (isolate Srivastava/1982) (AAV-2)) (UniProt P03135).
For experiment [6], the target named is AAV2 capsid variant 1.45 (adeno-associated virus type 2 (AAV2)) (UniProt P03135).
Experiment [7] addresses AAV2 capsid variant γ4.3 (adeno-associated virus type 2 (AAV2)) (UniProt P03135).
The target in experiment [8] is SM 100-3 variant AAV capsid (Adeno-associated virus 2 (isolate Srivastava/1982) (AAV-2)) (UniProt P03135).
Experiment [9] addresses wild-type AAV8 capsid (adeno-associated virus type 8 (AAV8)).

In the case of “Gamimune N, 10% Human IVIG (Bayer, Elkhart Ind.)”, the Fold Resistance Relative to AAV2 in experiment [1] was 1.76 fold; in experiment [2] it was 4.39 fold; in experiment [3], 3.41 fold; in experiment [4] it was 1 fold; in experiment [5], 7.52 fold; in experiment [8], 4.94 fold. The same substance came in with a Fold Resistance Relative to AAV2 in [9] of 6.11 fold. The Neutralizing IVIG concentration (IVIG required to reduce gene delivery efficiency to 50% of that in the absence of IVIG) in [1] amounted to 0.026 mg/mL; in experiment [2], 0.066 mg/mL; in [3], 0.051 mg/mL; in experiment [4], 0.015 mg/mL; in [5], 0.113 mg/mL; in [8] it was 0.074 mg/mL. The substance further showed a Neutralizing IVIG concentration (IVIG required to reduce gene delivery efficiency to 50% of that in the absence of IVIG) in experiment [9] of 0.092 mg/mL. Further, the fold enhanced resistance to pooled human IVIg compared to wild-type AAV2 is 1.23 fold in experiment [6] and 3.1 fold in experiment [7].
